From patent US7608407 (Boehringer Ingelheim, dated 2009)

Biological target: T1, GST-HDC (human histidine decarboxylase, amino acid residues 1-477, fused to GST) (human, UniProt P19113 1-477)
T1 sequence: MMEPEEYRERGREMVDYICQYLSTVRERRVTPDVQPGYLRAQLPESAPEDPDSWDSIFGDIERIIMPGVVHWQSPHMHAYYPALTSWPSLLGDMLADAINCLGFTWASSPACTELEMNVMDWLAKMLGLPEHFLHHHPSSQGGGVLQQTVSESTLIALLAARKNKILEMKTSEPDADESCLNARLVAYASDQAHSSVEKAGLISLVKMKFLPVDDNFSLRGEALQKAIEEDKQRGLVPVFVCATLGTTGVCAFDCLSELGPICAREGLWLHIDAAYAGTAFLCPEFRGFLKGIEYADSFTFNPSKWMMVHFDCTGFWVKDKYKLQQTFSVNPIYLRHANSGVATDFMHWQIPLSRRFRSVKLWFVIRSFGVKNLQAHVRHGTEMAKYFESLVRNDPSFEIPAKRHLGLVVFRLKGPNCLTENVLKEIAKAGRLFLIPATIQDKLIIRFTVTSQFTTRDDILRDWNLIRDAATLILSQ
Assay: cell-based or functional assay

## HF [dipeptide histidine-phenylalanine]
  IC50 (inhibition of HDC enzyme activity, standard fluorescence polarization HDC assay): 228 µM
